According to patent US20230174623A1:

Target: collagen within the matrix fraction of excised B16F10 tumors
Assay: depletion of AF647-LAIR fluorescence from solution by the B16F10 tumor matrix fraction, at steady state

decrease in solution concentration (LAIR depleted from the bath) [%]	uptake into the tumor matrix (LAIR binding sites of a tumor) [nmol]	Substance
20	–	AF647-labeled LAIR
–	0.2	AF647-labeled LAIR (receptor)
